B1: E3 ubiquitin-protein ligase RNF8 (Homo sapiens), O76064 (parent)
chain: MGEPGFFVTGDRAGGRSWCLRRVGMSAGWLLLEDGCEVTVGRGFGVTYQLVSKICPLMISRNHCVLKQNPEGQWTIMDNKSLNGVWLNRARLEPLRVYSIHQGDYIQLGVPLENKENAEYEYEVTEEDWETIYPCLSPKNDQMIEKNKELRTKRKFSLDELAGPGAEGPSNLKSKINKVSCESGQPVKSQGKGEVASTPSDNLDPKLTALEPSKTTGAPIYPGFPKVTEVHHEQKASNSSASQRSLQMFKVTMSRILRLKIQMQEKHEAVMNVKKQTQKGNSKKVVQMEQELQDLQSQLCAEQAQQQARVEQLEKTFQEEEQHLQGLEIAQGEKDLKQQLAQALQEHWALMEELNRSKKDFEAIIQAKNKELEQTKEEKEKMQAQKEEVLSHMNDVLENELQCIICSEYFIEAVTLNCAHSFCSYCINEWMKRKIECPICRKDIKSKTYSLVLDNCINKMVNNLSSEVKERRIVLIRERKAKRLF

Variants of: B1
Details: with chd4_human CHD4, Q14839
Chain of chd4_human CHD4, Q14839 (Q14839 whole entry): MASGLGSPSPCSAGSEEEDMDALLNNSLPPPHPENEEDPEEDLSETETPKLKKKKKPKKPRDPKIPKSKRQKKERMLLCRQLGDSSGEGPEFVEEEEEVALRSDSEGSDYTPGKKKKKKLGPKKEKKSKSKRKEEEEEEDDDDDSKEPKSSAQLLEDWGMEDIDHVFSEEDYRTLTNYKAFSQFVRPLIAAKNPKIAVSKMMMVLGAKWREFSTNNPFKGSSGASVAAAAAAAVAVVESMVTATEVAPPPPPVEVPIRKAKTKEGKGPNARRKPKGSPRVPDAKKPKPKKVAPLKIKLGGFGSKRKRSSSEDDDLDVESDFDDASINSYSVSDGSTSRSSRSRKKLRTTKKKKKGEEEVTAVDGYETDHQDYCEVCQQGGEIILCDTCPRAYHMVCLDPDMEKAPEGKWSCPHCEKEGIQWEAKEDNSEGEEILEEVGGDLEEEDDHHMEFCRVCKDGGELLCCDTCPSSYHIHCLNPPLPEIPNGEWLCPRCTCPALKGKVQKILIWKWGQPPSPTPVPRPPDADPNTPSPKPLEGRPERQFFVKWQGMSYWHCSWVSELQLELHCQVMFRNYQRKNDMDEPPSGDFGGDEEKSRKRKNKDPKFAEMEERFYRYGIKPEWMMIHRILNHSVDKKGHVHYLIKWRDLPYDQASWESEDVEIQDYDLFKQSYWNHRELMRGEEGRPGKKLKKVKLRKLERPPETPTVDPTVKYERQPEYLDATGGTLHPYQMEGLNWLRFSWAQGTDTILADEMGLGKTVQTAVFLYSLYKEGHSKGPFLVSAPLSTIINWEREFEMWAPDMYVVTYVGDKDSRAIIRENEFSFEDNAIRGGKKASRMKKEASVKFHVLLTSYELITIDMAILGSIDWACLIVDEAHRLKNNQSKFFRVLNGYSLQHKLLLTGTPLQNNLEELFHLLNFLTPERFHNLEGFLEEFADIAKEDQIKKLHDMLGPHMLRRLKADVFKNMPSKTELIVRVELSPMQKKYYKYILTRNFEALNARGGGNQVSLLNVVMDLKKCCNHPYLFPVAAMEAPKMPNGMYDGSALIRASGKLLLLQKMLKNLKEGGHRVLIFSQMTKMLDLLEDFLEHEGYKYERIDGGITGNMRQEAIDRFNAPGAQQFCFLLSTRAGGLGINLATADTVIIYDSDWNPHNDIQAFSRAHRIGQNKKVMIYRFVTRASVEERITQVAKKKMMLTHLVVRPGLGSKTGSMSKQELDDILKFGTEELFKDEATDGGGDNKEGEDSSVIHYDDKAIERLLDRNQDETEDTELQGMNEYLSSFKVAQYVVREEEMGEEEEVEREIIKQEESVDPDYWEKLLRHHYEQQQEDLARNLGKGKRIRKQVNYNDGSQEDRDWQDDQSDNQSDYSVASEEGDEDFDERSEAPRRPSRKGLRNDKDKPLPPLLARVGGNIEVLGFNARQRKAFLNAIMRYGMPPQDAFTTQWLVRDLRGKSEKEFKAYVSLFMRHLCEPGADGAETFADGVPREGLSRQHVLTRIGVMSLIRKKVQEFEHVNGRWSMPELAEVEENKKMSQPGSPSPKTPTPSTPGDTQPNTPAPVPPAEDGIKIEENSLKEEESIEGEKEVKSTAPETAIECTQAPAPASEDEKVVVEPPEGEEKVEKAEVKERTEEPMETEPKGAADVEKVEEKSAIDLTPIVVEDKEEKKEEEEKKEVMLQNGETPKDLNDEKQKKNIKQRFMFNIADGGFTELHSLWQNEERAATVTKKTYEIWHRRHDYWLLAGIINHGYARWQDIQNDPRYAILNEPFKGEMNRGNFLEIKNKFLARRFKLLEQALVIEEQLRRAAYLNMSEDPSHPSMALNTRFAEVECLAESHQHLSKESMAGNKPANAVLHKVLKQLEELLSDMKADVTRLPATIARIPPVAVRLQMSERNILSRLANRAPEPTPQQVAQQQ

Variant | effect of a mutation on the interaction
MGEPGFFVTGDRAGGRSWCLRRVGMSAGWLLLEDGCEVTVGRGFGVTYQLVSKICPLMISRNHCVLKQNPEGQWTIMDNKSLNGVWLNRARLEPLRVYSIHQGDYIQLGVPLENKENAEYEYEVTEEDWETIYPCLSPKNDQMIEKNKELRTKRKFSLDELAGPGAEGPSNLKSKINKVSCESGQPVKSQGKGEVASTPSDNLDPKLTALEPSKTTGAPIYPGFPKVTEVHHEQKASNSSASQRSLQMFKVTMSRILRLKIQMQEKHEAVMNVKKQTQKGNSKKVVQMEQELQDLQSQLCAEQAQQQARVEQLEKTFQEEEQHLQGLEIAQGEKDLKQQLAQALQEHWALMEELNRSKKDFEAIIQAKNKELEQTKEEKEKMQAQKEEVLSHMNDVLENELQSIICSEYFIEAVTLNCAHSFCSYCINEWMKRKIECPICRKDIKSKTYSLVLDNCINKMVNNLSSEVKERRIVLIRERKAKRLF [C403S] | increasing interaction
MGEPGFFVTGDRAGGRSWCLRRVGMSAGWLLLEDGCEVTVGAGFGVTYQLVSKICPLMISRNHCVLKQNPEGQWTIMDNKSLNGVWLNRARLEPLRVYSIHQGDYIQLGVPLENKENAEYEYEVTEEDWETIYPCLSPKNDQMIEKNKELRTKRKFSLDELAGPGAEGPSNLKSKINKVSCESGQPVKSQGKGEVASTPSDNLDPKLTALEPSKTTGAPIYPGFPKVTEVHHEQKASNSSASQRSLQMFKVTMSRILRLKIQMQEKHEAVMNVKKQTQKGNSKKVVQMEQELQDLQSQLCAEQAQQQARVEQLEKTFQEEEQHLQGLEIAQGEKDLKQQLAQALQEHWALMEELNRSKKDFEAIIQAKNKELEQTKEEKEKMQAQKEEVLSHMNDVLENELQCIICSEYFIEAVTLNCAHSFCSYCINEWMKRKIECPICRKDIKSKTYSLVLDNCINKMVNNLSSEVKERRIVLIRERKAKRLF [R42A] | increasing interaction

Reference: IntAct's records for PubMed 22531782
